{"source": "patent US20120034672A1", "about": "“[…] LUCIFERASE VARIANT WITH PROLONGED BIOLUMINESCENCE” (priority 2009, published 2012)", "molecules": {"B1": {"name": "I114L: MpLuc1 with a mutation introduced into I114; corresponds to I90 of GLuc (protein)", "chain": "MMEIQVLFALICFALVQANPTENKDDIDIVGVEGKFGTTDLETDLFTIVEDMNVISRDTNLANSDADRGKMPGKKLPLEVLIEMEANARKAGCTRGCLICLSKIKCTAKMKVYLPGRCHDYGGDKKTGQAGIVGAIVDIPEISGFKELGPMEQFIAQVDLCADCTTGCLKGLANVKCSALLKKWLPDRCASFADKIQSEVDNIKGLAGDRKDEL", "modifications": "MpLuc1 mutant (I114L)"}, "B2": {"name": "MpLuc4: Y113W/I114L/H119E/Y121W variant of MpLuc1 (protein)", "chain": "MMEIQVLFALICFALVQANPTENKDDIDIVGVEGKFGTTDLETDLFTIVEDMNVISRDTNLANSDADRGKMPGKKLPLEVLIEMEANARKAGCTRGCLICLSKIKCTAKMKVWLPGRCEDWGGDKKTGQAGIVGAIVDIPEISGFKELGPMEQFIAQVDLCADCTTGCLKGLANVKCSALLKKWLPDRCASFADKIQSEVDNIKGLAGDR", "modifications": "MpLuc1 mutant (Y113W/I114L/H119E/Y121W); MpLuc4", "notes": "Y113W/I114L/H119E/Y121W variant of MpLuc1"}, "B3": {"name": "MLuc4: Y122W/I123L/H128E/Y130W variant of MLuc (protein)", "chain": "MDIKVVFTLVFSALVQAKSTEFDPNIDIVGLEGKFGITNLETDLFTIWETMEVMIKADIADTDRASNFVATETDANRGKMPGKKLPLAVIMEMEANAFKAGCTRGCLICLSKIKCTAKMKVWLPGRCEDWGGDKKTGQAGIVGAIVDIPEISGFKEMAPMEQFIAQVDRCASCTTGCLKGLANVKCSELLKKWLPDRCASFADKIQKEVHNIKGMAGDR", "modifications": "MLuc mutant (Y122W/I123L/H128E/Y130W); MLuc4", "notes": "Y122W/I123L/H128E/Y130W variant of MLuc"}, "B4": {"name": "F89W/I90L: GLuc with isoleucine 90 replaced with leucine and phenylalanine 89 with tryptophan (protein)", "chain": "MGVKVLFALICIAVAEAKPTENNEDFNIVAVASNFATTDLDADRGKLPGKKLPLEVLKEMEANARKAGCTRGCLICLSHIKCTPKMKKWLPGRCHTYEGDKESAQGGIGEAIVDIPEIPGFKDLEPMEQFIAQVDLCVDCTTGCLKGLANVQCSDLLKKWLPQRCATFASKIQGQVDKIKGAGGDKDEL", "modifications": "GLuc mutant (F89W/I90L); named 8990"}, "B5": {"name": "Y97W: GLuc variant in which tyrosine (Y) at position 97 was mutated to tryptophan (W) (protein)", "chain": "B4 chain with W89F, L90I, Y97W", "modifications": "GLuc mutant (Y97W)"}, "B6": {"name": "I90V: GLuc variant, isoleucine at position 90 mutated to valine (protein)", "chain": "B4 chain with W89F, L90V, D100N", "modifications": "GLuc mutant (I90V)"}, "B7": {"name": "F89W: GLuc variant, F at position 89 replaced with W (protein)", "chain": "B4 chain with L90I", "modifications": "GLuc mutant (F89W)"}, "B8": {"name": "I108V: GLuc variant, position 108 replaced with valine (protein)", "chain": "B4 chain with W89F, L90I, D100N, I108V", "modifications": "GLuc mutant (I108V)"}, "B9": {"name": "I118V: GLuc variant, position 118 replaced with valine (protein)", "chain": "B4 chain with W89F, L90I, D100N, I118V", "modifications": "GLuc mutant (I118V)"}, "B10": {"name": "H95E: GLuc variant, histidine at position 95 replaced with glutamic acid (protein)", "chain": "B4 chain with W89F, L90I, H95E", "modifications": "GLuc mutant (H95E)"}, "B11": {"name": "I90L/I115L: GLuc with isoleucine at positions 90 and 115 replaced with leucine (protein)", "chain": "B4 chain with W89F, I115L", "modifications": "GLuc mutant (I90L/I115L)"}, "B12": {"name": "SimGR3: control probe: original GLuc dissected into two fragments with GR LBD and LXXLL motif inserted (protein)", "chain": "MKPTENNEDFNIVAVASNFATTDLDADRGKLPGKKLPLEVLKEMEANARKAGCTRGCLICLSHIKCTPKMKKFIPGRCHTYEGDKESAQGGGGGTQLTPTLVSLLEVIEPEVLYAGYDSSVPDSTWRIMTTLNMLGGRQVIAAVKWAKAIPGFRNLHLDDQMTLLQYSWMFLMAFALGWRSYRQSSANLLCFAPDLIINEQRMTLPCMYDQCKHMLYVSSELHRLQVSYEEYLCMKTLLLLSSVPKDGLKSQELFDEIRMTYIKELGKAIVKREGNSSQNWQRFYQLTKLLDSMHEVVENLLNYCFQTFLDKTMSIEFPEMLAEIITNQIPKYSNGNIKKLLFHQKVDGGNGGRNALLRYLLDKDGSGGGGIGEAIVDIPEIPGFKDLEPMEQFIAQVDLCVDCTTGCLKGLANVQCSDLLKKWLPQRCATFASKIQGQVDKIKGAGGDKDEL", "modifications": "SimGR3; an integrated molecule-format probe carrying an LXXLL motif and GLuc.", "notes": "control probe: original GLuc dissected into two fragments with GR LBD and LXXLL motif inserted"}, "B13": {"name": "I123L: MLuc with I123L mutation introduced; corresponds to I90 of GLuc (protein)", "chain": "B3 chain with W122Y, E128H, W130Y", "modifications": "MLuc mutant (I123L)"}}, "key": {"[1]": {"assay": "Luminescence activities of MpLuc1 and its variants", "assay_type": "cell-based", "details": "for luminescence stability compared with MpLuc1: microplate reader", "procedure": "These variants were individually introduced in equal amounts into living cells, and their relative luminescence intensities were measured."}, "[2]": {"assay": "Luminescence activities of MLuc and its variants", "assay_type": "cell-based", "details": "for luminescence stability of MLuc variants: measured every 0.5 seconds", "procedure": "These variants were individually introduced in equal amounts into living cells, and their relative luminescence spectra were measured. […] In order to examine the luminescence stability of the variants produced in the present invention, temporal changes in the luminescence intensity after the introduction of the substrate were measured every 0.5 seconds (FIG. 15B). […] Further, in order to examine the long-wavelength luminescence intensities of the variants, the luminescence intensities of the variants were measured using a 610 nm long-pass filter. […] Results similar to the above tendency were obtained from the measurement of the luminescence intensities before and after the introduction of the substrate (FIG. 15D)."}, "BALE/c nude mice": {"tested_on": "BALE/c nude mice", "assay": "In vivo imaging of transplanted COS-7 cells expressing GLuc or 8990", "details": "subcutaneous COS-7 cells, coelenterazine injected; listed as 8990", "procedure": "Subsequently, both of these transformed cells were transplanted into subcutaneous tissues of the back on the left and right sides of BALE/c nude mice (5-week-old female). After waiting 12 hours to allow stabilization of the transplanted cells, an equal amount of substrate (coelenterazine) was injected. Subsequently, the developed bioluminescence intensities were compared (FIG. 16A)."}, "[3]": {"assay": "Temporal changes in bioluminescence intensity after substrate introduction (stability)", "details": "for bioluminescence stability and strength: substrate in modified Matthew's buffer; for bioluminescence stability, short time: 5 seconds; for bioluminescence stability, short time / bioluminescence stability, long time: substrate in PBS buffer; for bioluminescence stability, long time: 10 minutes", "experimental": "First, a gene encoding each GLuc variant was cloned into pcDNA 3.1(+), and the same amount of plasmid was introduced into COS-7 cells. The cells were collected 16 hours after the introduction, lysed in cell lysate, and then transferred to a microplate reader. PBS buffer in which coelenterazine is dissolved was set to a substrate injector of the plate reader. At the measurement, after the substrate was automatically injected into each well, changes in the luminescence intensities were measured every 0.05 seconds.\nNote that the composition of the modified Matthew's buffer contains the following components: • 100 mM potassium phosphate, 500 mM sodium chloride, 1 mM ethylenediaminetetraacetic acid (EDTA), 0.15 mg/ml porcine gelatin, pH 5.0, 1% Nonyiphenol ethoxylates (Tergitol NP-9) and 1% Antifoam, 25 mM thiourea, and 0.1% DMSO."}, "[4]": {"assay": "Area of luminescence spectrum of GLuc variants (20-minute lysis, luminescence plate reader)", "assay_type": "biochemical", "details": "for bioluminescence intensity higher than GLuc (area ratio): plate reader; for bioluminescence intensity (area of spectrum), in words: versus original GLuc", "procedure": "In this case, a protocol for immersing the lysate samples in lysis solution for 20 minutes was employed (uniformed cell lysates even whose organelles are lysed). The area of the luminescence spectrum measured by a luminescence plate reader was used as the index of the luminescence intensity."}, "[5]": {"assay": "Luminescence spectrum of GLuc variants in COS-7 cell lysates (5-minute lysis, spectrophotometer)", "assay_type": "biochemical", "details": "for luminance (peak of luminescence spectrum), in words: versus original GLuc; for luminescence intensity higher than GLuc (peak of luminescence spectrum): COS-7 lysate, coelenterazine", "procedure": "Subsequently, cell lysates were prepared from the COS-7 cells in each well (5-minute lysis), and a spectrum was measured in the presence of a luciferase-specific substrate (coelenterazine), using a fluorescence spectrophotometer (F-7000, Hitachi), thereby examining the effect of the introduced mutation. FIGS. 4B-1 and 4C show the results.\nAdditionally, in the preparation of cell samples, the samples are immersed in a lysis solution for 5 minutes. This allows preparation of non-uniform samples of cells whose organelles are not lysed, by a quick process."}, "[6]": {"tested_on": "stress hormone receptor (glucocorticoid receptor)", "assay": "Single-molecule-format bioluminescent probe response to stress hormone", "assay_type": "cell-based", "details": "with/without stress hormone", "procedure": "In order to further examine the advantages of the highly-luminescent variants of the present invention, a single-molecule-format bioluminescent probe was synthesized based on this variant (FIG. 13). […] These probes were inserted into living cells, and the difference in the luminescence intensity was measured under conditions of presence and absence of […].\nFirst, a stress hormone receptor recognizes the stress hormone, and causes an alteration in the structure. As a result, the receptor binds to the adjacent LXXLL motif, which thereby causes recombination of the fragments of the dissected luciferase. At this time, the activity of the stress hormone can be measured using the reversed enzyme activity as the index.\nThe sensitivity of SimGR3, 8990N, and Mon3N prepared for this experiment to the stress hormone was measured (FIG. 13B)."}}, "note": "Residue numbers refer to the chain shown, from its start. Numbers in names are those of the source. Entries after “also recorded” stand apart in the source; their conditions may differ."}
{"molecule": "B1", "values": [{"measurement": "luminescence intensity compared to original MpLuc1", "setting": "[1]; luminescence spectrum", "value": "higher luminescence intensity"}, {"measurement": "luminescence stability compared with MpLuc1", "setting": "[1]", "value": "more stable bioluminescences"}]}
{"molecule": "B2", "values": [{"measurement": "initial luminescence intensity sustained", "setting": "[1]; 10 seconds after introduction of substrate", "value": 60, "unit": "%"}, {"measurement": "luminescence stability compared with MpLuc1", "setting": "[1]", "value": "more stable bioluminescences"}]}
{"molecule": "B3", "values": [{"measurement": "luminescence stability of MLuc variants", "setting": "[2]", "value": "most stable bioluminescence"}, {"measurement": "luminescence stability of MLuc variants", "setting": "[2]; listed as Mluc4", "value": "more stable bioluminescence"}]}
{"molecule": "B4", "values": [{"measurement": "bioluminescence at transplantation site versus GLuc", "setting": "BALE/c nude mice", "value": "stronger bioluminescence"}, {"measurement": "bioluminescence stability and strength", "setting": "[3]", "value": "very stable and strong bioluminescence"}, {"measurement": "bioluminescence intensity higher than GLuc (area ratio)", "setting": "[4]", "value": 10.2, "unit": "times"}, {"measurement": "bioluminescence intensity (area of spectrum), in words", "setting": "[4]", "value": "particularly high bioluminescence intensity"}]}
{"molecule": "B5", "values": [{"measurement": "bioluminescence stability, short time", "setting": "[3]", "value": "stable luminescence intensities; also recorded: relatively stable bioluminescences"}, {"measurement": "bioluminescence intensity higher than GLuc (area ratio)", "setting": "[4]", "value": 2.1, "unit": "times"}, {"measurement": "bioluminescence intensity (area of spectrum), in words", "setting": "[4]", "value": "particularly high bioluminescence intensity"}]}
{"molecule": "B6", "values": [{"measurement": "bioluminescence stability, long time", "setting": "[3]", "value": "relatively stable"}, {"measurement": "luminance (peak of luminescence spectrum), in words", "setting": "[5]", "value": "particularly high luminance"}]}
{"molecule": "B7", "values": [{"measurement": "bioluminescence stability, short time", "setting": "[3]", "value": "relatively unstable luminescence intensity"}, {"measurement": "bioluminescence stability, long time", "setting": "[3]", "value": "relatively unstable"}, {"measurement": "decrease of bioluminescence intensity", "setting": "[3]; within 10 minutes after introduction of substrate", "value": "about 60%"}, {"measurement": "luminescence intensity higher than GLuc (peak of luminescence spectrum)", "setting": "[5]", "value": 9, "unit": "times"}, {"measurement": "luminance (peak of luminescence spectrum), in words", "setting": "[5]", "value": "particularly high luminance"}]}
{"molecule": "B8", "values": [{"measurement": "luminescence intensity higher than GLuc (peak of luminescence spectrum)", "setting": "[5]", "value": 6.7, "unit": "times"}, {"measurement": "luminance (peak of luminescence spectrum), in words", "setting": "[5]", "value": "particularly high luminance"}]}
{"molecule": "B9", "values": [{"measurement": "luminance (peak of luminescence spectrum), in words", "setting": "[5]", "value": "particularly high luminance"}]}
{"molecule": "B10", "values": [{"measurement": "bioluminescence intensity higher than GLuc (area ratio)", "setting": "[4]", "value": 3.0, "unit": "times"}, {"measurement": "bioluminescence intensity (area of spectrum), in words", "setting": "[4]", "value": "particularly high bioluminescence intensity"}]}
{"molecule": "B11", "values": [{"measurement": "bioluminescence stability and strength", "setting": "[3]", "value": "very stable and strong bioluminescence"}, {"measurement": "bioluminescence intensity higher than GLuc (area ratio)", "setting": "[4]", "value": 4.9, "unit": "times"}, {"measurement": "bioluminescence intensity (area of spectrum), in words", "setting": "[4]", "value": "particularly high bioluminescence intensity"}]}
{"molecule": "B12", "values": [{"measurement": "luminescence and stress hormone sensitivity with 610 nm long-pass filter", "setting": "[6]", "value": "not significant enough to distinguish between the presence and absence of stress hormone"}]}
{"molecule": "B13", "values": [{"measurement": "long-wavelength luminescence intensity", "setting": "[2]; 610 nm long-pass filter", "value": "strong bioluminescence in the red wavelength"}, {"measurement": "luminescence intensity compared to original MLuc", "setting": "[2]; luminescence spectrum", "value": "increased"}]}
